From PMC8184587

T1: BRM AT (AT-hook alone) (Homo sapiens, UniProt P51531 1358-1377)
T1 chain: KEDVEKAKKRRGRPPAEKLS


Tests used:
AT-LANAA-BD = AT-LANAA-BD (Homo sapiens, UniProt P51531-2 1358-1490, P1378A;P1380A;P1381A); assay: fluorescence anisotropy
BRM AT-L-BD WT (BRM-B) [1] = target: T2, BRM AT-L-BD WT (BRM-B) (Homo sapiens, UniProt P51531-2 1358-1490); assay: fluorescence anisotropy
BRM AT-L-BD WT (BRM-B) [2] = target: T2, BRM AT-L-BD WT (BRM-B); assay: NMR
BRM AT (AT-hook alone) = target: T1, BRM AT (AT-hook alone); assay: NMR
ATGGGP-L-BD = ATGGGP-L-BD (Homo sapiens, UniProt P51531-2 1358-1490, R1368G;R1370G); assay: NMR
ATDGDP-L-BD = ATDGDP-L-BD (Homo sapiens, UniProt P51531-2 1358-1490, R1368D;R1370D); assay: NMR

Binder | Kd (AT-LANAA-BD) [µM] | Kd (BRM AT-L-BD WT (BRM-B) [1]) [µM] | Kd (BRM AT-L-BD WT (BRM-B) [2]) [µM] | Kd (BRM AT (AT-hook alone)) [µM] | Kd (ATGGGP-L-BD) [µM] | Kd (ATDGDP-L-BD) [µM]
DNA.FA 12 bp dsDNA (dsDNA) DNA 1: CCTCAATTGGTC DNA 2: GACCAATTGAGG | 4 ± 1 | 8 ± 1 |  |  |  | 
10 bp NMR dsDNA (dsDNA) DNA 1: CTCAATTGGT DNA 2: ACCAATTGAG |  |  | ~3 | 220 ± 30 | 130 ± 30 | 410 ± 70
